Measurements from PMC10853514.

Target: human myosin VI heavy chain, full length, containing both the large-insertion (LI) and small-insertion (SI) regions (human) (UniProt Q9UM54)
Assay: cryo-EM structure; single-particle cryo-EM of myosin VI/CaM in PB, TB + AMPPNP and PB + ATP, the three datasets combined; autoinhibited state, 3.54 Å (4.14 Å map with the SAH-E)

human myosin VI heavy chain, full length, containing both the large-insertion (LI) and small-insertion (SI) regions (human), sequence (Q9UM54 other isoform, or with tags, fused parts or gaps): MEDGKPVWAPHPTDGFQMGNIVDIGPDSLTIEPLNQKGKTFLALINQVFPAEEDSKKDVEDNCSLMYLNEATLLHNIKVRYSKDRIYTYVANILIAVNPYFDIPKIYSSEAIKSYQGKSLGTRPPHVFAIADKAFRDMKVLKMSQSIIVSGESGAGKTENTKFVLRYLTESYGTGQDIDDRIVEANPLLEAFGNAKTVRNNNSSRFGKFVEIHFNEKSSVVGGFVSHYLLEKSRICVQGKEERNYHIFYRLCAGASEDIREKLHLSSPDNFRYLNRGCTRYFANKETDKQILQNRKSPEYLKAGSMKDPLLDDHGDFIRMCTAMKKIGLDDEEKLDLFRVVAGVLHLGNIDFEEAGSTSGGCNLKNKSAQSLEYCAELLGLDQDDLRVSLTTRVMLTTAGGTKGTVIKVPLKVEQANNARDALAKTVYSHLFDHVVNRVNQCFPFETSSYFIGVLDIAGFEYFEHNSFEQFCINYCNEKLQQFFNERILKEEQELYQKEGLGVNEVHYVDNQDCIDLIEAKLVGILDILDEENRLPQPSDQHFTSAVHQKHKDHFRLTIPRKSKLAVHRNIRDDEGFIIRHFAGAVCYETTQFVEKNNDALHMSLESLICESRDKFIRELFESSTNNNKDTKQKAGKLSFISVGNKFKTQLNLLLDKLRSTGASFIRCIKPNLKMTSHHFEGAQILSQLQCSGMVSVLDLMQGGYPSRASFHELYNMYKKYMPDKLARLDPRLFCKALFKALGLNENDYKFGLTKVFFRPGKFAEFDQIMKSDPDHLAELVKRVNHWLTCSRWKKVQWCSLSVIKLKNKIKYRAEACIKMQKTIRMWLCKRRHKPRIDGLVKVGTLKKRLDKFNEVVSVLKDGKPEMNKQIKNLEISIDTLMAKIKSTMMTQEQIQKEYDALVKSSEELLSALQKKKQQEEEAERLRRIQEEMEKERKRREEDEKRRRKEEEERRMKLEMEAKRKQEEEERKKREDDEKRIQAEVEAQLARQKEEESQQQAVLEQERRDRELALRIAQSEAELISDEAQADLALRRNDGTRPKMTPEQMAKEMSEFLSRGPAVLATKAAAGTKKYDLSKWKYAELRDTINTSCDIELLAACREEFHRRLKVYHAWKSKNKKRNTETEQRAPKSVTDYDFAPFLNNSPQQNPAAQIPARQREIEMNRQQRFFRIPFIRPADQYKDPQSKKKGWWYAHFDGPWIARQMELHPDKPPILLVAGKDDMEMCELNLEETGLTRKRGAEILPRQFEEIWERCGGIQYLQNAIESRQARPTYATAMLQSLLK

stoichiometry N: 2
Substance: calmodulin (CaM), light chain of myosin VI (from UniProt P0DP23 1-149) (natural protein)
